Measurements from US8173604.

Tests used:
[1] = test system: 4060 peptide (eighteen-residue peptide, residues 40-57 of human Skp2)
[2] = target: insect cell-produced and purified GST-cyclin A/Cdk2 (kinase reactions, ~3 nM) (UniProt P20248); experiment: kinase inhibition: purified proteins, ~3 nM GST-cyclin A/Cdk2, Rb-C phosphorylation, non-linear least squares (FIG. 7F)

Chain of purified p27 (GST cleaved off by thrombin) (P46527 whole entry): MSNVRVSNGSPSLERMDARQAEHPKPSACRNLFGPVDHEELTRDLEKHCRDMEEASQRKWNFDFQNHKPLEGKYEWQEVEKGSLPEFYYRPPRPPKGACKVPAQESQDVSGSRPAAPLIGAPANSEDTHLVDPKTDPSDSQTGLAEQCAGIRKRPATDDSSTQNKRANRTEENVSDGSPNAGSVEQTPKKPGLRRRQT

Ki [2] [nM]	Substance	IP-kinase assay, phosphorylation of Rb-C by cyclin A/Cdk2 (Peptide RxL)	IP-kinase assay, phosphorylation of Rb-C by cyclin A/Cdk2 [1]
–	myc-cyclin A/Cdk2 (293T cell extracts transfected with myc-cyclin A and Cdk2)	the RxL peptide inhibited the kinase activity of cyclin A/Cdk2 towards Rb-C as expected	the 4060 peptide did not
2	purified p27 (GST cleaved off by thrombin) (from UniProt P46527 1-198) (other; other documents disagree on this pair)	–	–
